# ± gives the uncertainty stated by the source.
# Test: protein stability index of a GFP-peptide fusion (yeast GPS) (PSI 1-4); higher = more stable; sorted into four equal gates, so the index is relative within each strain
# Procedure, shortened: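 Plasmids isolated from each sorting gate were PCR-amplified and Illumina-sequenced, and barcodes assigned the reads to strains. The gates, four of equal size, were set by GFP/Cherry fluorescence ratio on mid-log cultures in leucine-free medium. These cultures were yeast carrying a pooled library of tiled 17-residue yeast protein peptides fused downstream of GFP on a plasmid that also expresses Cherry. The protein stability index is the sum of every gate's read frequency times its gate number.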
sequence,measurement,setting,value
VDSISLHKIFYKVLKNN [YCG1],protein stability index,doa10∆,1.99 ± 0.047
same,protein stability index,pdr5∆,2.32 ± 0.039
same,protein stability index,san1∆,2.71 ± 0.037
same,protein stability index,ubr1∆,2.3 ± 0.042
SPSYSPTSPSYSPTSPS [RPO21],protein stability index,doa10∆,2 ± 0.032
same,protein stability index,pdr5∆,2.33 ± 0.03
same,protein stability index,san1∆,2.06 ± 0.034
same,protein stability index,ubr1∆,2.1 ± 0.025
IKDEIDDPFTKINTRGA [SWI1],protein stability index,doa10∆,1.96 ± 0.22
same,protein stability index,pdr5∆,1.58 ± 0.1
same,protein stability index,san1∆,1.53 ± 0.13
same,protein stability index,ubr1∆,2.12 ± 0.16
KSIDSKTPEEVEVYAKI [ISW2],protein stability index,doa10∆,1.88 ± 0.078
same,protein stability index,san1∆,2.88 ± 0.14
same,protein stability index,ubr1∆,3.01 ± 0.12
RKDKDAKFRLILIESRI [RPS13],protein stability index,doa10∆,1.52 ± 0.094
same,protein stability index,pdr5∆,1.82 ± 0.12
same,protein stability index,san1∆,1.9 ± 0.11
same,protein stability index,ubr1∆,2.57 ± 0.11
NNDVFTIGPYRARKDRM [SSN3],protein stability index,doa10∆,3.67 ± 0.27
same,protein stability index,pdr5∆,3.11 ± 0.26
same,protein stability index,san1∆,3.43 ± 0.14
same,protein stability index,ubr1∆,3.32 ± 0.13
IQVLTEASSLGYLDDSE [IRR1],protein stability index,doa10∆,1.3 ± 0.068
same,protein stability index,pdr5∆,1.56 ± 0.057
same,protein stability index,san1∆,1.76 ± 0.1
same,protein stability index,ubr1∆,1.42 ± 0.055
SEVGDAFIFGLQDELKE [SMC3],protein stability index,doa10∆,3.2 ± 0.067
same,protein stability index,pdr5∆,3.31 ± 0.061
same,protein stability index,san1∆,3.1 ± 0.057
same,protein stability index,ubr1∆,3.25 ± 0.072
NQKLALVIKSGKYTLGY [RPL30],protein stability index,doa10∆,2.46 ± 0.11
same,protein stability index,pdr5∆,2.87 ± 0.09
same,protein stability index,san1∆,2.29 ± 0.13
same,protein stability index,ubr1∆,2.93 ± 0.047
WSKTIKARTNLHQHVVL [RPC34],protein stability index,doa10∆,2.11 ± 0.1
same,protein stability index,pdr5∆,1.8 ± 0.1
same,protein stability index,san1∆,1.71 ± 0.21
same,protein stability index,ubr1∆,2.34 ± 0.064
PLLVPGMTPCTVSPDFV [FAS1],protein stability index,doa10∆,1.64 ± 0.096
same,protein stability index,pdr5∆,2.38 ± 0.055
same,protein stability index,san1∆,1.98 ± 0.11
same,protein stability index,ubr1∆,1.64 ± 0.065
LTNEISDLKGKLSSAEN [YIL149C/MLP2],protein stability index,doa10∆,3.38 ± 0.22
same,protein stability index,pdr5∆,3.29 ± 0.13
same,protein stability index,ubr1∆,3.32 ± 0.18
ETPKSNNSLSYHSGRLL [ITC1],protein stability index,doa10∆,3.22 ± 0.14
same,protein stability index,pdr5∆,3.06 ± 0.12
same,protein stability index,san1∆,2.63 ± 0.13
same,protein stability index,ubr1∆,3.32 ± 0.078
LMLEDAVTEREVLVTPG [MCD1],protein stability index,doa10∆,1.94 ± 0.2
same,protein stability index,san1∆,2.16 ± 0.13
same,protein stability index,ubr1∆,2.18 ± 0.27
LTEGGSILEEKIAVLNN [SMC1],protein stability index,doa10∆,3.31 ± 0.22
same,protein stability index,pdr5∆,2.85 ± 0.15
same,protein stability index,san1∆,3.32 ± 0.11
same,protein stability index,ubr1∆,2.87 ± 0.28
LEWLENPSNTPDKDYLL [FAS1],protein stability index,doa10∆,3.16 ± 0.11
same,protein stability index,pdr5∆,3.21 ± 0.088
same,protein stability index,san1∆,3.27 ± 0.071
same,protein stability index,ubr1∆,3.29 ± 0.11
KFSSRHGQKGVCGIIVK [RET1],protein stability index,doa10∆,3.56 ± 0.095
same,protein stability index,pdr5∆,3.51 ± 0.092
same,protein stability index,san1∆,3.71 ± 0.051
same,protein stability index,ubr1∆,3.14 ± 0.12
SNNITSGLNRAISTGNW [RET1],protein stability index,doa10∆,3.13 ± 0.11
same,protein stability index,pdr5∆,3.37 ± 0.11
same,protein stability index,san1∆,3.25 ± 0.061
same,protein stability index,ubr1∆,3 ± 0.079
LSMNIAPRLRLEDIFQQ [RET1],protein stability index,doa10∆,2.06 ± 0.05
same,protein stability index,pdr5∆,1.92 ± 0.038
same,protein stability index,san1∆,1.98 ± 0.057
same,protein stability index,ubr1∆,2.01 ± 0.037
YVNALADVLYKTAFKPH [QCR2],protein stability index,doa10∆,3.04 ± 0.054
same,protein stability index,pdr5∆,3.06 ± 0.048
same,protein stability index,san1∆,2.72 ± 0.038
same,protein stability index,ubr1∆,2.81 ± 0.05
IILKTRQINKLIDSLPG [SRB7],protein stability index,doa10∆,2.31 ± 0.071
same,protein stability index,pdr5∆,2.11 ± 0.047
same,protein stability index,san1∆,2.62 ± 0.067
same,protein stability index,ubr1∆,2.51 ± 0.058
TPLLENISISTSELGND [BRR2],protein stability index,doa10∆,2.16 ± 0.058
same,protein stability index,pdr5∆,2.05 ± 0.049
same,protein stability index,san1∆,2.2 ± 0.07
same,protein stability index,ubr1∆,2.03 ± 0.042
TTKILGDKILGNLYSKV [YML103C/NUP188],protein stability index,doa10∆,2.69 ± 0.079
same,protein stability index,pdr5∆,2.82 ± 0.08
same,protein stability index,san1∆,3.16 ± 0.058
same,protein stability index,ubr1∆,2.75 ± 0.051
RSMVRKWQTLIEANVTV [RPS1A],protein stability index,doa10∆,1.65 ± 0.053
same,protein stability index,pdr5∆,1.62 ± 0.044
same,protein stability index,san1∆,1.67 ± 0.079
same,protein stability index,ubr1∆,2.24 ± 0.041
TRIKLLLTKNVSCYRPR [RPS6A],protein stability index,doa10∆,2.11 ± 0.22
same,protein stability index,pdr5∆,2.64 ± 0.14
same,protein stability index,san1∆,2.88 ± 0.11
same,protein stability index,ubr1∆,2.94 ± 0.17
ELSIRDVTHTLGMLDDN [SMC4],protein stability index,doa10∆,3.13 ± 0.091
same,protein stability index,pdr5∆,3.04 ± 0.082
same,protein stability index,san1∆,3.22 ± 0.049
same,protein stability index,ubr1∆,3.27 ± 0.097
DTKKVKESPANDQASNE [YIL149C/MLP2],protein stability index,doa10∆,3.17 ± 0.13
same,protein stability index,pdr5∆,3.29 ± 0.1
same,protein stability index,san1∆,3.12 ± 0.2
same,protein stability index,ubr1∆,3.15 ± 0.19
HANSVVALTGLLIRSKT [YML031W/NDC1],protein stability index,doa10∆,1.86 ± 0.04
same,protein stability index,pdr5∆,2.18 ± 0.046
same,protein stability index,san1∆,1.83 ± 0.052
same,protein stability index,ubr1∆,2.35 ± 0.033
LHPYNSRGLFEKKLMQD [YDL116W/NUP84],protein stability index,doa10∆,2.89 ± 0.18
same,protein stability index,pdr5∆,3.28 ± 0.16
same,protein stability index,san1∆,2.86 ± 0.1
same,protein stability index,ubr1∆,2.91 ± 0.13
RINSTDEDLHEFQIEDA [SRB8],protein stability index,doa10∆,2.86 ± 0.14
same,protein stability index,pdr5∆,2.87 ± 0.078
same,protein stability index,san1∆,2.86 ± 0.12
same,protein stability index,ubr1∆,3.22 ± 0.2
DQVLVKGGEQISQLYSD [YJL041W/NSP1],protein stability index,doa10∆,3.18 ± 0.091
same,protein stability index,pdr5∆,3.16 ± 0.082
same,protein stability index,san1∆,3.2 ± 0.061
same,protein stability index,ubr1∆,3.16 ± 0.091
QSYFSQLKFEGFALNSD [BRR2],protein stability index,doa10∆,1.35 ± 0.05
same,protein stability index,pdr5∆,1.26 ± 0.045
same,protein stability index,san1∆,1.17 ± 0.094
same,protein stability index,ubr1∆,1.43 ± 0.04
VILKQILQILDQDELVQ [SWP82],protein stability index,doa10∆,2.54 ± 0.051
same,protein stability index,pdr5∆,2.52 ± 0.082
same,protein stability index,san1∆,2.57 ± 0.063
same,protein stability index,ubr1∆,2.5 ± 0.06
TPAPKISYKKGAASNRT [RPL36A],protein stability index,doa10∆,2.98 ± 0.072
same,protein stability index,pdr5∆,3.22 ± 0.06
same,protein stability index,san1∆,3.17 ± 0.058
same,protein stability index,ubr1∆,3.1 ± 0.042
LPDPKPLPLDLNVQVWH [ITC1],protein stability index,doa10∆,2.8 ± 0.064
same,protein stability index,pdr5∆,2.72 ± 0.051
same,protein stability index,san1∆,3.01 ± 0.063
same,protein stability index,ubr1∆,2.55 ± 0.038
QNDTPMFKLGNFESPVL [YLR018C/POM34],protein stability index,doa10∆,2.08 ± 0.066
same,protein stability index,pdr5∆,2.48 ± 0.059
same,protein stability index,san1∆,2.62 ± 0.05
same,protein stability index,ubr1∆,2.29 ± 0.034
LLFKARLQQQQAQAQAQ [GAL11],protein stability index,doa10∆,1.3 ± 0.081
same,protein stability index,pdr5∆,1.59 ± 0.075
same,protein stability index,san1∆,1.3 ± 0.14
same,protein stability index,ubr1∆,1.5 ± 0.056
IEQLFPVRPVRVRHEDV [RPC53],protein stability index,doa10∆,2.9 ± 0.076
same,protein stability index,pdr5∆,2.97 ± 0.048
same,protein stability index,san1∆,2.89 ± 0.055
same,protein stability index,ubr1∆,3.03 ± 0.037
REIHNEAESQLRAAQQQ [FAS2],protein stability index,doa10∆,2.91 ± 0.088
same,protein stability index,pdr5∆,2.36 ± 0.07
same,protein stability index,san1∆,2.86 ± 0.076
same,protein stability index,ubr1∆,2.91 ± 0.053
DKETQLKKRAVSGVELR [POP7],protein stability index,doa10∆,2.7 ± 0.21
same,protein stability index,pdr5∆,2.57 ± 0.26
same,protein stability index,san1∆,2.36 ± 0.18
same,protein stability index,ubr1∆,2.27 ± 0.25
KRNSDKVEYKIVHDDPA [ITC1],protein stability index,doa10∆,2.12 ± 0.072
same,protein stability index,pdr5∆,2.02 ± 0.083
same,protein stability index,san1∆,1.95 ± 0.13
same,protein stability index,ubr1∆,1.27 ± 0.053
ANNNGSNLQRAQNVPMN [GAL11],protein stability index,doa10∆,3.09 ± 0.096
same,protein stability index,pdr5∆,3.54 ± 0.12
same,protein stability index,san1∆,3.17 ± 0.099
same,protein stability index,ubr1∆,3.09 ± 0.085
YKAKIKELENNLERLRS [YIL149C/MLP2],protein stability index,doa10∆,3.22 ± 0.095
same,protein stability index,pdr5∆,1.65 ± 0.051
same,protein stability index,san1∆,2.64 ± 0.078
same,protein stability index,ubr1∆,3.11 ± 0.054
SNLTIYPIYELLMSCPR [GRR1],protein stability index,doa10∆,1.72 ± 0.083
same,protein stability index,pdr5∆,1.75 ± 0.071
same,protein stability index,san1∆,1.89 ± 0.13
same,protein stability index,ubr1∆,1.83 ± 0.056
TRVTRLSLQRANVEILA [CSL4],protein stability index,doa10∆,1.64 ± 0.042
same,protein stability index,pdr5∆,1.78 ± 0.043
same,protein stability index,san1∆,1.78 ± 0.081
same,protein stability index,ubr1∆,2.03 ± 0.033
SNLEKLPKYKEKKAASA [MED7],protein stability index,doa10∆,2.14 ± 0.06
same,protein stability index,pdr5∆,2.82 ± 0.06
same,protein stability index,san1∆,2.83 ± 0.06
same,protein stability index,ubr1∆,2.25 ± 0.057
VINPQQLLKGLSLSFSK [DSN1],protein stability index,doa10∆,3.2 ± 0.11
same,protein stability index,pdr5∆,3.1 ± 0.089
same,protein stability index,san1∆,2.54 ± 0.086
same,protein stability index,ubr1∆,3.12 ± 0.1
FDKDLERDTFSDFTFPE [DIS3],protein stability index,doa10∆,2.11 ± 0.15
same,protein stability index,pdr5∆,1.88 ± 0.13
same,protein stability index,san1∆,1.24 ± 0.17
same,protein stability index,ubr1∆,1.32 ± 0.15
KAFEERHQAGKNQWFFS [RPL27A],protein stability index,doa10∆,2.87 ± 0.097
same,protein stability index,pdr5∆,3.14 ± 0.11
same,protein stability index,san1∆,2.65 ± 0.11
same,protein stability index,ubr1∆,3.03 ± 0.055
AKKHKLNAITLDGDRAD [SMC3],protein stability index,doa10∆,2.37 ± 0.21
same,protein stability index,pdr5∆,2.66 ± 0.28
AGFDPRDDEPKLYQTEP [PRE6],protein stability index,doa10∆,3.24 ± 0.084
same,protein stability index,pdr5∆,3.03 ± 0.12
same,protein stability index,san1∆,3.1 ± 0.05
same,protein stability index,ubr1∆,3.24 ± 0.07
SNADTNQNSDMKKKLEL [SRB8],protein stability index,doa10∆,3.14 ± 0.13
same,protein stability index,pdr5∆,3.21 ± 0.15
same,protein stability index,san1∆,2.75 ± 0.11
same,protein stability index,ubr1∆,3.31 ± 0.17
